Reference: US20200317758A1 (NEW YORK UNIVERSITY, published 2020)

Assays:
[1] = target: T1, recombinant derivative of the LukE protein (SEQ ID NO: 826) with amino-terminal poly-histidine affinity tag (Staphylococcus aureus, UniProt Q2FXB0 24-306); test: BLI, sequential binding
T1 construct: not biotinylated in HDX-MS and neutralization assays; also called biotinylated LukE; LukE antigen
T1 sequence: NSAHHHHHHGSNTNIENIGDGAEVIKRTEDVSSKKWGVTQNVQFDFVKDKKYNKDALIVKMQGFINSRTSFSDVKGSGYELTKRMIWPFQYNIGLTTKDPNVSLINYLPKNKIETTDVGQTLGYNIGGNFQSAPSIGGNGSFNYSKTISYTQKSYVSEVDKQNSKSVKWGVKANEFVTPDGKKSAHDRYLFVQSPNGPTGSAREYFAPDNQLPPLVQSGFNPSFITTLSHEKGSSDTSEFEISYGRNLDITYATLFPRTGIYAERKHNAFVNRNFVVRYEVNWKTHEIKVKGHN

[2] = target: T2, recombinant toxoid variant of the LukAB protein (LukA E323A) with poly-histidine and streptavidin binding … (Staphylococcus aureus, UniProt Q2FFA2 31-351; P21224 30-338); test: ELISA, biotinylated LukAB toxoid on streptavidin plate, mAb titrated
T2 construct: also called LukAB toxoid protein; biotinylated LukAB

[3] = target: T1, recombinant derivative of the LukE …; test: HDX-MS, Fab with LukE in solution
[4] = target: T1, recombinant derivative of the LukE …; test: ELISA, biotinylated LukE on streptavidin plate, mAb titrated
[5] = target: T3, recombinant derivative of the LukD protein (SEQ ID NO: 824) with amino-terminal polyhistidine affinity tag, … (Staphylococcus aureus, UniProt Q2FXB1 27-327, chemically biotinylated in vitro (sites not given)); test: ELISA, biotinylated LukD on streptavidin plate, mAb titrated
T3 construct: it carries the N-terminal His tag; also called biotinylated LukD; LukD antigen
T3 sequence: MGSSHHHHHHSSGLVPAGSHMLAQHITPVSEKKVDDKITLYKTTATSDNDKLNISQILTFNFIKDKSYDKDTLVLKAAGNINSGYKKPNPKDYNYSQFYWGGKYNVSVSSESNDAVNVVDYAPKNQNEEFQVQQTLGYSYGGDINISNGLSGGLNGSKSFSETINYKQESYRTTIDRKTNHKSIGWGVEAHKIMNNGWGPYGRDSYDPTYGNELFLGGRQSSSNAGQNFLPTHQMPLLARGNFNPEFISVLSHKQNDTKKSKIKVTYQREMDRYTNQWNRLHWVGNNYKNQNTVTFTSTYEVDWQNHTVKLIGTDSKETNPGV

B1: anti-LukE mAb SM1B507 (antibody, mouse IgG1, kappa)
heavy: EVQLQQSGAELVKPGASVKMSCKASGYTFTDYYMDWVKQSHGKSFEWIGHVNPYNGDTRYNQKFKGKATLTVDKSSTTAYMELNSLTSEDSAVYYCARGNFFDYWGQGTTLSVSSAKTTPPSVYPLAPGSAAQTNSMVTLGCLVKGYFPEPVTVTWNSGSLSSGVHTFPAVLESDLYTLSSSVTVPSSPRPSETVTCNVAHPASSTKVDKKIVPRDCGCKPCICTVPEVSSVFIFPPKPKDVLTITLTPKVTCVVVDISKDDPEVQFSWFVDDVEVHTAQTQPREEQFNSTFRSVSELPIMHQDWLNGKEFKCRVNSAAFPAPIEKTISKTKGRPKAPQVYTIPPPKEQMAKDKVSLTCMITDFFPEDITVEWQWNGQPAENYKNTQPIMNTNGSYFVYSKLNVQKSNWEAGNTFTCSVLHEGLHNHHTEKSLSHSPGK
light: DIVMTQSPAIMSASPGEKVTIPCSASSSVSYMHWFQQKPGTSPKLWIYSTSNLASGVPGRFSGSGSGTSYSLTISRMEAEDAATYYCQQRSNYPLTFGAGTKLELKRADAAPTVSIFPPSSEQLTSGGASVVCFLNNFYPKDINVKWKIDGSERQNGVLNSWTDQDSKDSTYSMSSTLTLTKDEYERHNSYTCEATHKTSTSPIVKSFNRNEC
B1: binds [1].

B2: anti-LukAB mAb SM1B252 (antibody, mouse IgG2a, kappa, V domains shown)
VH: QVQLQQSGAELMKPGASVKISCKASGYTFSDYWIEWIKQRPGHGLEWMGEILPGSDKTNYNEKFKGKATFTADSSSNTAYMQLNSLTSEDSAVFYCATAGDDYVKWGQGTLVTVSA
VL: DVLMTQTPLSLPVSLGDQASISCRSSQSIVYSNGNTYLEWYLQKPGQSPKLLIYKVSNRFSGVPDRFSGSGSGTDFTLKISRVEAEDLGVYYCFQGSHVPFTFGSGTKLEIKR
B2: binds [2].

B3: Fab SM1B438 (the Fab corresponding to mAb SM1B318) (Fab, V domains shown)
VH: QVQLQQSGAELMNPGASVKISCKSTGYKFSSYWIEWVKQRPGHGLEWMGEILPGSGSTNHNEKFKGKAIFTADASSNTAYMELSSLTSEDSAVYYCARTISTATDWFAYWGQGTLVTVSA
VL: DVLMTQTPLSLPVSLGDQASISCRSSQTIVYSDGNTYLEWYLQKPGQSPKLLIYKVSNRFSGVPDRVSGSGSGTDFTLKISRVEAEDLGVYYCFQGSHVPYTFGGGTKLEIKR
B3: binds [3].

B4: anti-LukE mAb SM1B318 (antibody, mouse IgG2a, kappa, V domains shown)
VH: QVQLQQSGAELMNPGASVKISCKSTGYKFSSYWIEWVKQRPGHGLEWMGEILPGSGSTNHNEKFKGKAIFTADASSNTAYMELSSLTSEDSAVYYCARTISTATDWFAYWGQGTLVTVSA
VL: DVLMTQTPLSLPVSLGDQASISCRSSQTIVYSDGNTYLEWYLQKPGQSPKLLIYKVSNRFSGVPDRVSGSGSGTDFTLKISRVEAEDLGVYYCFQGSHVPYTFGGGTKLEIKR
B4: binds [4].

B5: anti-LukE mAb SM1B332 (antibody, mouse IgG2a, kappa, V domains shown)
VH: QVQLKESGPGLVAPSQSLSITCTVSGLSLTSYGLSWVRQPPGKGLEWLGVIWGDGSTNYHSALISRLSISKDNSKSQVFLKLNSLQSDDTATYYCATRGDYGSYAMDYWGQGTSVTVSS
VL: QIVLTQSPAIMSASPGEKVTLTCSASSSVSSSYLFWYQQKPGSSPKLWIYSTSNLASGVPVRFSGSGFGTSYSLTISRMEAEDAASYFCHQWSSYPPTFGAGTKLELKR
B5 was tested, and the EC50 [4] was ~0.05 µg/mL.

B6: Fab SM1B709 (the Fab corresponding to mAb SM1B507) (Fab, V domains shown)
VH: EVQLQQSGAELVKPGASVKMSCKASGYTFTDYYMDWVKQSHGKSFEWIGHVNPYNGDTRYNQKFKGKATLTVDKSSTTAYMELNSLTSEDSAVYYCARGNFFDYWGQGTTLSVSS
VL: DIVMTQSPAIMSASPGEKVTIPCSASSSVSYMHWFQQKPGTSPKLWIYSTSNLASGVPGRFSGSGSGTSYSLTISRMEAEDAATYYCQQRSNYPLTFGAGTKLELKR
B6: binds [3].

B7: antibody SM1B225 (antibody, V domains shown)
VH: EVQLQQSGGGLVKPGGSLKLSCAASGFTFSSYAMSWVRQTPEKRLEWVATITGGGTYTYYLDSVKGRFTISRDNAKTSLYLQMSSLRSEDTAMYYCARHRDGNYGCFDVWGAGTTVTVSS
VL: DIVLTQSPAIMSASLGERVTMTCTASSSVSSSYLHWYQQKPGSSPKLWVYSTSNLASGVPARFSGSGSGSSYSLTISSMEPEDTATYYCHQYHRSPQTFGGGTKLEIKR
notes: also called anti-LukD mAb SM1B225
In the case of B7, the EC50 [5] is reported as 0.01 to 0.2 µg/mL.

B8: anti-LukAB mAb SM1B245 (antibody, mouse IgG2a, kappa, V domains shown)
VH: QVQLQQSGAELAKPGASVKMSCKSSGYTFSTYWMHWVKQRPGQGLEWIGYINPNTGYTEYNQKFKDTATLTADKSSSTAYMQLSSLTSEDSAVYYCARGGSKAFPYYAMDYWGQGTSVTVSS
VL: DIVLTQSPASLAVSLGQRATMSCRASESVDGYGNSFLHWYQQKPGQPPKLLIYRASNLESGIPARFSGTGSRTDFTLTITPVEADDVATYYCQQSNGDPFTFGSGTKLEIKR
B8: binds [2].

B9: anti-LukAB mAb SM1B111 (antibody, V domains shown)
VH: EVQLQQSGAELVKPGASVKISCKASGYAFSSSWMNWLKQRPGKGLEWIGRIYPGDGDTNYNGKFKGKATLTADKSSSTAYMQLSSLTSEDSAVYFCARYGYDYDGEYYYAMDYWGQGTSVTVSS
VL: DIVMTQSPTTMAASPGERITITCSAHSNLISNYLHWYQQKPGFSPKLLIYRTSNLASGVPARFSGSGSGTSYSLTIGTMEAEDVATYFCQQGSSIPFTFGSGTKLEIKR
B9: binds [2].
